Data: article PMC9482650, “Quantitative fragmentomics allow affinity mapping of interactomes” (Nature Communications, 2022)

T1: DFNB31_2, Q9P202
T1 sequence (Q9P202 274-371, limits assumed, looked up): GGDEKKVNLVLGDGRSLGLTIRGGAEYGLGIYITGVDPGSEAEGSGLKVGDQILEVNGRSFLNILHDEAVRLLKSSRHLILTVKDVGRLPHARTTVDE

T2: LNX2_3, Q8N448
T2 sequence (Q8N448 463-564, limits assumed, looked up): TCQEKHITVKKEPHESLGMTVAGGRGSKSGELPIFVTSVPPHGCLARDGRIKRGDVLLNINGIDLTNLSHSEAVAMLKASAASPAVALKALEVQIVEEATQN

T3: DLG3_1, Q92796
T3 sequence (Q92796 125-227, limits assumed, looked up): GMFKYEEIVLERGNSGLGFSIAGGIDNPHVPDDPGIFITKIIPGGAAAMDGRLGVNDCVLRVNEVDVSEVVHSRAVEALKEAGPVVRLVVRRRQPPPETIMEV

T4: ARHGEF11, O15085
T4 sequence (O15085 42-136, limits assumed, looked up): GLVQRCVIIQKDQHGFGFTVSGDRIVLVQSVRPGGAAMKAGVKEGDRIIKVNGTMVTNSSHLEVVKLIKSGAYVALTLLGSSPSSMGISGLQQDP

T5: MPDZ_5, O75970
T5 sequence (O75970 695-796, limits assumed, looked up): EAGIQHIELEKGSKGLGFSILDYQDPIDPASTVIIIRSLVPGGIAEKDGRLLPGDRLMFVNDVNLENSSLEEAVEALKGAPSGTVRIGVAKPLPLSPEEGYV

T6: SNTA1, Q13424
T6 sequence (Q13424 82-180, limits assumed, looked up): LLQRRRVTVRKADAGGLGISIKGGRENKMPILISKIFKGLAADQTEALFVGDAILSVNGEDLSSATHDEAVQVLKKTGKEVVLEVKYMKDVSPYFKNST

T7: GRIP1_7, Q9Y3R0
T7 sequence (Q9Y3R0 999-1096, limits assumed, looked up): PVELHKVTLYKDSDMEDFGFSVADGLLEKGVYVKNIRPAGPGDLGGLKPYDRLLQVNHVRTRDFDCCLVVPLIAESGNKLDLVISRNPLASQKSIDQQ

T8: PDZD2_2, O15018
T8 sequence (O15018 329-429, limits assumed, looked up): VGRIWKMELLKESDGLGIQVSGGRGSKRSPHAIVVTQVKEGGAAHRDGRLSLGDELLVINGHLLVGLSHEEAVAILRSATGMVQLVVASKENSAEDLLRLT

T9: TX1BP3, O14907
T9 sequence (O14907 10-122, limits assumed, looked up): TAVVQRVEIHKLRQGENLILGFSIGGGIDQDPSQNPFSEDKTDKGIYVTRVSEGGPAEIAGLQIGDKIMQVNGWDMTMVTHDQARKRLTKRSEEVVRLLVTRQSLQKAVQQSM

T10: LIN7C, Q9NUP9
T10 sequence (Q9NUP9 88-185, limits assumed, looked up): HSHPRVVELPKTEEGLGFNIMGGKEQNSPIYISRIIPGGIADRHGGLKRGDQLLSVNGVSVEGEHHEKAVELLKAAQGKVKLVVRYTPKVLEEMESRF

T11: HTRA3, P83110
T11 sequence (P83110 354-453, limits assumed, looked up): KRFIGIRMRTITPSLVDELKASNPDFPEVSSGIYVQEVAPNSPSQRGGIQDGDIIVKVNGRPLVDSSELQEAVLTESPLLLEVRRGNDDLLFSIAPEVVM

T12: PARD3B_1, Q8TEW8
T12 sequence (Q8TEW8 196-299, limits assumed, looked up): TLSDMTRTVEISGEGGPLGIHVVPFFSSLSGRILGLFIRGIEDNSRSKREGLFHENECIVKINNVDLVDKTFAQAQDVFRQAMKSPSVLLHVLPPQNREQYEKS


Assays:
Test in all cases: holdup assay
Parameters in all cases: key: below the threshold = too weak to quantify, mostly under pKd 3.1 to 4
Conditions in all cases: plain residues with an end cap or a label only (N-terminal biotin on a linker: ado-ado)
DFNB31_2, Q9P202 = biological target: T1, DFNB31_2, Q9P202
LNX2_3, Q8N448 = biological target: T2, LNX2_3, Q8N448
DLG3_1, Q92796 = biological target: T3, DLG3_1, Q92796
Inadl_1, Q8NI35 = biological target: Inadl_1, Q8NI35
Inadl_1, Q8NI35, sequence (Q8NI35 113-229): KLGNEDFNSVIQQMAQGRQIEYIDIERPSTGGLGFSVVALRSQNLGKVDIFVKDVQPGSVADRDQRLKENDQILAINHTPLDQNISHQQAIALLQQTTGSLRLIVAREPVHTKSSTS

NHERF2_2, Q15599 = biological target: NHERF2_2, Q15599
NHERF2_2, Q15599, sequence (Q15599 142-238): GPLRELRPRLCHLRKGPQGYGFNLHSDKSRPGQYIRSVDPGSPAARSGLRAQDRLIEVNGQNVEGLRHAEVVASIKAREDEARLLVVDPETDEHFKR

FRMPD2_2, Q68DX3 = biological target: FRMPD2_2, Q68DX3
FRMPD2_2, Q68DX3, sequence (Q68DX3 944-1038): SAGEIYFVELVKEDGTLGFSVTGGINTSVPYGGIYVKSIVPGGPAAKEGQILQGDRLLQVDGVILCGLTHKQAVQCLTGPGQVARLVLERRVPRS

Inadl_3, Q8NI35 = biological target: Inadl_3, Q8NI35
Inadl_3, Q8NI35, sequence (Q8NI35 359-469): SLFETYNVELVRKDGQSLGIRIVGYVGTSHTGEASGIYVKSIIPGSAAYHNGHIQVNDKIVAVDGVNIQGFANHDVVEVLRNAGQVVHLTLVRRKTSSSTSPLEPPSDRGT

Inadl_5, Q8NI35 = biological target: Inadl_5, Q8NI35
Inadl_5, Q8NI35, sequence (Q8NI35 673-780): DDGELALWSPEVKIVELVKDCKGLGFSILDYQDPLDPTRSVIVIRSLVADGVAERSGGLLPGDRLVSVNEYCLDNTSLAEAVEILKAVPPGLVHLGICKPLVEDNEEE

ARHGEF11, O15085 = biological target: T4, ARHGEF11, O15085
GORASP2, Q9H8Y8 = biological target: GORASP2, Q9H8Y8
SCRIB_2, Q14160 = biological target: SCRIB_2, Q14160
SCRIB_2, Q14160, sequence (Q14160 857-960): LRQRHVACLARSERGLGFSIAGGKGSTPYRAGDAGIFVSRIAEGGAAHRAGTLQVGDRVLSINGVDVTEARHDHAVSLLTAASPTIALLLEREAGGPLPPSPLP

MPDZ_5, O75970 = biological target: T5, MPDZ_5, O75970
SNTA1, Q13424 = biological target: T6, SNTA1, Q13424
LAP2, Q96RT1 = biological target: LAP2, Q96RT1
LAP2, Q96RT1, sequence (Q96RT1 other isoform, or with tags, fused parts or gaps): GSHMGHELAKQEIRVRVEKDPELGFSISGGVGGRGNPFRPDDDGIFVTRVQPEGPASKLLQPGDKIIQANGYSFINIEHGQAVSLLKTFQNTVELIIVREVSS

TJP1_2, Q07157 = biological target: TJP1_2, Q07157
TJP1_2, Q07157, sequence (Q07157 181-274): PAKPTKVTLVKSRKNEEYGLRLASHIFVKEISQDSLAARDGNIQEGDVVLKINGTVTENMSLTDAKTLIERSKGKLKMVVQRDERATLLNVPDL

FRMPD4, Q14CM0 = biological target: FRMPD4, Q14CM0
FRMPD4, Q14CM0, sequence (Q14CM0 67-160): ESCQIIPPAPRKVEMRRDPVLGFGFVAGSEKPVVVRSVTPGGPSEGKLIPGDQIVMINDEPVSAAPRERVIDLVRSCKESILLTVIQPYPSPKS

GRID2IP_2, A4D2P6 = biological target: GRID2IP_2, A4D2P6
GRID2IP_2, A4D2P6, sequence (A4D2P6 272-370): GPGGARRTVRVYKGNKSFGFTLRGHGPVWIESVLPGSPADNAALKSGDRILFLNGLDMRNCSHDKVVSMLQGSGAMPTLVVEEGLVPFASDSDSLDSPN

GOPC, Q9HD26 = biological target: GOPC, Q9HD26
GRIP1_7, Q9Y3R0 = biological target: T7, GRIP1_7, Q9Y3R0
PDZD2_2, O15018 = biological target: T8, PDZD2_2, O15018
TX1BP3, O14907 = biological target: T9, TX1BP3, O14907
LIN7C, Q9NUP9 = biological target: T10, LIN7C, Q9NUP9
HTRA3, P83110 = biological target: T11, HTRA3, P83110
PARD3B_1, Q8TEW8 = biological target: T12, PARD3B_1, Q8TEW8

Binder | pKd (DFNB31_2, Q9P202) | pKd (LNX2_3, Q8N448) | pKd (DLG3_1, Q92796) | pKd (Inadl_1, Q8NI35) | pKd (NHERF2_2, Q15599) | pKd (FRMPD2_2, Q68DX3) | pKd (Inadl_3, Q8NI35) | pKd (Inadl_5, Q8NI35) | pKd (ARHGEF11, O15085) | pKd (GORASP2, Q9H8Y8) | pKd (SCRIB_2, Q14160) | pKd (MPDZ_5, O75970) | pKd (SNTA1, Q13424) | pKd (LAP2, Q96RT1) | pKd (TJP1_2, Q07157) | pKd (FRMPD4, Q14CM0) | pKd (GRID2IP_2, A4D2P6) | pKd (GOPC, Q9HD26) | pKd (GRIP1_7, Q9Y3R0) | pKd (PDZD2_2, O15018) | further results
VISSDDLTEL [CAPN6, Q9Y6Q1] | below the threshold | below the threshold | below the threshold | below the threshold | 4.28 | below the threshold | below the threshold | below the threshold | 4.45 | below the threshold | below the threshold | below the threshold | below the threshold | below the threshold | below the threshold | 4.73 | 4.34 | below the threshold | below the threshold | 4.39 | pKd (TX1BP3, O14907): below the threshold; pKd (LIN7C, Q9NUP9): below the threshold; pKd (HTRA3, P83110): below the threshold; pKd (PARD3B_1, Q8TEW8): below the threshold
THHRKIHTRV [ZNF599, Q96NL3] | below the threshold | 3.51 | 4.48 | below the threshold | below the threshold | 3.52 | below the threshold | 3.49 | 4.25 | 4.25 | 4.15 | 3.55 | 4.3 | below the threshold | 3.62 | below the threshold | 3.8 | 4.67 | below the threshold | below the threshold | pKd (TX1BP3, O14907): 3.74; pKd (LIN7C, Q9NUP9): below the threshold; pKd (HTRA3, P83110): below the threshold; pKd (PARD3B_1, Q8TEW8): below the threshold
NKSEPFLTWL [WWTR1, Q9GZV5] | below the threshold | below the threshold | below the threshold | 4.52 | 5.27 | 4.29 | 4.35 | below the threshold | 5.33 | 4.9 | below the threshold | below the threshold | below the threshold | 4.6 | below the threshold | 5.15 | 4.65 | 4.16 | below the threshold | 5.89 | pKd (TX1BP3, O14907): 4.49; pKd (LIN7C, Q9NUP9): 3.58; pKd (HTRA3, P83110): 5.43; pKd (PARD3B_1, Q8TEW8): 4.57
QLGSPTADLA [SIPA1, Q96FS4] | below the threshold | below the threshold | below the threshold | below the threshold | below the threshold | below the threshold | below the threshold | below the threshold | below the threshold | below the threshold | below the threshold | below the threshold | below the threshold | below the threshold | below the threshold | below the threshold | below the threshold | below the threshold | below the threshold | below the threshold | pKd (TX1BP3, O14907): below the threshold; pKd (LIN7C, Q9NUP9): 3.69; pKd (HTRA3, P83110): below the threshold; pKd (PARD3B_1, Q8TEW8): below the threshold

The next lines start with results.

pKd (DFNB31_2, Q9P202) | pKd (LNX2_3, Q8N448) | pKd (DLG3_1, Q92796) | pKd (Inadl_1, Q8NI35) | pKd (NHERF2_2, Q15599) | pKd (FRMPD2_2, Q68DX3) | pKd (Inadl_3, Q8NI35) | pKd (Inadl_5, Q8NI35) | pKd (ARHGEF11, O15085) | pKd (GORASP2, Q9H8Y8) | pKd (SCRIB_2, Q14160) | pKd (MPDZ_5, O75970) | pKd (SNTA1, Q13424) | pKd (LAP2, Q96RT1) | pKd (TJP1_2, Q07157) | pKd (FRMPD4, Q14CM0) | pKd (GRID2IP_2, A4D2P6) | pKd (GOPC, Q9HD26) | pKd (GRIP1_7, Q9Y3R0) | pKd (PDZD2_2, O15018) | Binder | further results
below the threshold | below the threshold | below the threshold | below the threshold | below the threshold | below the threshold | below the threshold | 4.31 | 4.16 | 4.88 | below the threshold | 4.18 | below the threshold | below the threshold | below the threshold | below the threshold | 3.56 | below the threshold | below the threshold | 4.55 | PSVYSRSQYV [CLDN8, P56748] | pKd (TX1BP3, O14907): below the threshold; pKd (LIN7C, Q9NUP9): below the threshold; pKd (HTRA3, P83110): 4.72; pKd (PARD3B_1, Q8TEW8): 3.58
below the threshold | below the threshold | below the threshold | below the threshold | below the threshold | below the threshold | below the threshold | below the threshold | below the threshold | 3.87 | below the threshold | below the threshold | below the threshold | 3.74 | below the threshold | 3.65 | below the threshold | below the threshold | below the threshold | below the threshold | RGKNRRQSIF [CDK18, Q07002] | pKd (TX1BP3, O14907): below the threshold; pKd (LIN7C, Q9NUP9): 3.5; pKd (HTRA3, P83110): below the threshold; pKd (PARD3B_1, Q8TEW8): 3.89
